These results are taken from patent US20170363632A1, “Biomarker Kit for Metastatic Breast Cancer Prognosis and Uses Thereof” (University of Maryland, Baltimore, priority 2016, published 2017).

The target in data set [1] is T1, HIS-PI3K/p85-SH3 (Homo sapiens, UniProt O00459).
T1 construct: the Src Homology 3 (SH3) domain of the regulatory subunit of PI3K were produced; made in house; host or cells: bacteria (IPTG induction)
T1 sequence (O00459 4-80 limits assumed): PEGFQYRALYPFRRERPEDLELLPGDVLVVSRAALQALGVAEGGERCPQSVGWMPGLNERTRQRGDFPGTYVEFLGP
T1 sequence (Q5VST9 5895-6004 partner limits assumed): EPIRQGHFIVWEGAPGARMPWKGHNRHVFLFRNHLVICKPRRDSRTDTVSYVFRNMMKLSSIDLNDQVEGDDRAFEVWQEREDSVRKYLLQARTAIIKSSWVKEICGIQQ
Description: Surface plasmon resonance (Biacore 3000) of obscurin-PH binding to PI3K/p85-SH3. The conditions noted are these: GST-obscurin-PH immobilized ligand, HIS-PI3K/p85-SH3 analyte 8-250 nM; 1:1 Langmuir model, at equilibrium; read-out: dissociation constant, KD. The text has this: The Pleckstrin Homology (PH) domain of obscurin and the Src Homology 3 (SH3) domain of the regulatory subunit of PI3K were produced as glutathione-S-transferase (GST, PGEX vector; GE Healthcare Life Sciences) and His (pET-30a(+) vector; EMD Millipore, Billerica, Mass.) tagged proteins, respectively, according to the manufacturers' instructions and established methods (19). Human cDNA from normal breast tissue was purchased from a commercial source (Origene, Atlanta, Ga.), and the following sets of primers were used for amplification of the obscurin-PH and the PI3K/p85-SH3 domains: Sense-Obsc-PH: 5′ CCCATCCGCCAGGGC 3′ (SEQ ID NO 1) and Antisense-Obsc-PH: 5′ AGGCAGGGCCAGACG 3′ (NM_001098623.2) (SEQ ID NO 2), and Sense-PI3K/p85-SH3: 5′ CCTGAGGGCTTCCAG 3′ (SEQ ID NO 3) and Antisense-PI3K/p85-SH3: 5′ TCAGGGCCCCAGGAA 3′ (NM_005027) (SEQ ID NO 4). […]
Surface plasmon resonance was performed using a BiaCore 3000 instrument as described (6, 19, 21). […] For each analyte concentration, association was measured for 180 sec and dissociation was measured over another 180 sec. Data were evaluated with the 1:1 Langmuir model and the Heterogeneous Ligand model (BIAevaluation Software 3.1, Biacore). The association (ka, M^−1 s^−1) and dissociation (kd, s^−1) rate constants as well as the association (KA, M^−1) and dissociation (KD, M) equilibrium constants were determined.
(In SPR one partner is held on a chip, and binding of the other changes the refractive index at the surface.)

Data set [2] deals with T1, HIS-PI3K/p85-SH3. As to the kind of experiment: GST-pull down assay. The class given is binding. The conditions noted are these: 3 mg/ml HIS-PI3K/p85-SH3; control GST-protein did not retain. The text has this: The Pleckstrin Homology (PH) domain of obscurin and the Src Homology 3 (SH3) domain of the regulatory subunit of PI3K were produced as glutathione-S-transferase (GST, PGEX vector; GE Healthcare Life Sciences) and His (pET-30a(+) vector; EMD Millipore, Billerica, Mass.) tagged proteins, respectively, according to the manufacturers' instructions and established methods (19). Human cDNA from normal breast tissue was purchased from a commercial source (Origene, Atlanta, Ga.), and the following sets of primers were used for amplification of the obscurin-PH and the PI3K/p85-SH3 domains: Sense-Obsc-PH: 5′ CCCATCCGCCAGGGC 3′ (SEQ ID NO 1) and Antisense-Obsc-PH: 5′ AGGCAGGGCCAGACG 3′ (NM_001098623.2) (SEQ ID NO 2), and Sense-PI3K/p85-SH3: 5′ CCTGAGGGCTTCCAG 3′ (SEQ ID NO 3) and Antisense-PI3K/p85-SH3: 5′ TCAGGGCCCCAGGAA 3′ (NM_005027) (SEQ ID NO 4). GST- and His-tagged recombinant proteins were expressed by induction with 0.5 mM isopropyl […] (IPTG) for 3 h and purified by affinity chromatography on glutathione-Sepharose (Thermo Fisher Scientific) or Talon cobalt (Thermo Fisher Scientific) columns, respectively, following the manufacturers' instructions.
GST-pull down assays were performed (19, 20). […]

B1: GST-obscurin-PH: recombinant Pleckstrin Homology (PH) domain of obscurin fused to GST, bacterially expressed (~37 kDa) (protein)
chain: EPIRQGHFIVWEGAPGARMPWKGHNRHVFLFRNHLVICKPRRDSRTDTVSYVFRNMMKLSSIDLNDQVEGDDRAFEVWQEREDSVRKYLLQARTAIIKSSWVKEICGIQQ
modifications: left off: a dimerising Fc or GST
Turning to B1, the Kd (as a rule, the free concentration of one partner at which half of the binding sites on the other are occupied at equilibrium, for simple one-to-one binding) with HIS-PI3K/p85-SH3 [1] was about 50 nM. The “retention of HIS-PI3K/p85-SH3 in GST-pull down” value with HIS-PI3K/p85-SH3 [2] was “able to efficiently and specifically retain HIS-PI3K/p85-SH3”.
